{
  "source": "patent US20240026407A1",
  "about": "“MODIFICATION OF SAPONINS” (GLAXOSMITHKLINE BIOLOGICALS SA, priority 2020, published 2024)",
  "molecules": {"B1": {"name": "1029 (protein, listed as Rhodococcus jostii)", "chain": "MTTPTHLRLEHLRPGEPCGTTHPRLSWRLPTGSTGQQAYQVRVAGAFDRTSSTLFTTEIIEGRDHVLVRPWTATHPAPTAGEARTWQVRCWTDLGPSDWSEPATWVTGLLHGGDLTADWIEPYEPDVPPLGHRPVYRLRASWRPRAEIAHASLFATAHGIYEFFVNDVRVGDHELTPGFTSYRAHLQVQHFDVTDLLHPEHNDLGILLSDGWFRGRHGFERHGDSFGDRVAALAELHVRYADGTSERFGTGDGWTSTPSEIDAADLMDGQRVDLRRVPAGEVRHPAVVARGGLYDDRSRLTTGVAPPVRRIETLAAVAVTEPRPGTYVVDFGQNVNGWVTAADLGPAGTHATLTHGESLAADGSVDTDHLRAFEFATGTGLPAGQVDHVVSSGRAGEAFESRHTTHGFRYVQFDGLATKPGPGSVTAAVVHTDLEQVGSFGCDNDRLAKLHAAAVWSFRGNACDVPTDCPQRERSGFTGDWQVYVETAAFTHDVAGFSDKWLRDLAADQWPDGTVPNIVPNPAGNQPSGNHFADIANGSAGWGDAAVIVPWQLWRLYGDVEVLERQYDSMTRWVERAAGAARDRRHPDRARARPTPDAHEEYLWDTGFHWGEWLEPDEIPAPDPARDHSVVATAYLARSAELLAQIAGVLGRDRDECRYAAIAAGAVRAWQREFITPEGTLTHPTQANYVRALEFDLVPAEGRRRFADELAQLLVDNDYHLGTGFLATGMLLPALARNGHLDTAYRVLLSTGNPSWMEMIDRGATTIWERWDGVDENGRATASLNHYAKGAVISFLHQFVAGLRPAETTGPHTVGYRRFVVDPRPGGDINTAHAEHCSPYGNIAVRWTIADDVFTLSLTVPSGSECELRLGDTTELLRSGTYTRTCPAARVTQRSSRASPTR"}, "B2": {"name": "1037 (protein, listed as Pedobacter heparinus)", "chain": "MNLKRHILLTAILMLNLSIAFSQVTLQNLRCEMLQNPLGIDVARPRLSWQIASTRNDVQQTAYHILVASSLAKLTENDADIWNSGKVNSAESLYNLYAGQTLKSKNKYYWKVKVYTSKGESSWSQPAFWLMGLLHYKDWEGRWIGFDRFFTGDNEAGARLSARYFRKEFSTTKTVASATAYLMGMGLYELYIDGQKIGDQVLAPTATDYTKNIKYNTLDVTEQLRQGGNHAIGVILGNGRFFAMRQSKAYKVKTFGLPKLLLQVNIKYTDGSTATIKTDDTWKGTADGPILANNEYDGEIYDARKEFKGWSEPGFKEDKWLRAEYVQEPGGTYEAQLNEGMKVMKTLSPVSITRRPNGNYILDFGQNFSGWVKFNVKGPRGTSVSLRFAESLEPNGELFRTNLRDARATDIYTLKGEGTETWAPRFTYQGFRYVELNGYPGVPQKSDFSGCLVYDDMKTAGTFESSNSLLNQIFKNAWWGIASNYKGMPVDCPQRNERQPWLGDRTVGAYGESFLFDNTALYKKWLDDIRYAQKEDGAIPDVAPAFWRYYSDNVTWPATLLFVADMLYRQTGDSTVIRKNYPAVKKWMSYMKDRYMSSEGIMTKDSYGDWCAPPATAEDGKGVNADQKHPSALIATAYYYHLANMMAGYSALTGNAGDREGYTRLAAEVKNAFNRKFYNSQGYYGDNKLTDNLLPVYFGLVEEADKGRVVMQICSIIEEKNNGHLSTGLIGTQFLMRTLTEAGRPDLAYRIASQKTYPSWGYMIENGATAIWELWNGNTAAPKMNSQNHVMMLGDLMIWYYENLAGIKAAAPGFKEITMKPELIEGLNNVTAGYQSVYGLIKSSWTKTGKKFSWNISIPPNTRAKAYLPASMQSQVKKGATADGAKYIMAENGRVVFELKSGEYAFVVEQ"}, "B3": {"name": "1048 (protein, listed as Klebsiella oxytoca)", "chain": "MSQAIQHNSQVMMTRHPNFLRTAEALRPALSRQAHPPIAVVEAHADAAALFGWRAEPVSTLAAFYQRELSSGDSVIIDFGSHYVGYLHFLCQSAGSPPDAPAHLQLTFGETLSEVCEPFSDYQGWLSSSWLQQQDLWLDVLPAEIDLPRRYCFRYLKVEVKAVSRKFRLQFTQIEVNAVTSASGACPAATTSDPQLRAIDNVAVLTLQNCMQEVFEDGPKRDRRLWLGDLRLQALVNDVTFARHDLVRRCLYLFAGHTREDGMVSANVFVQPDVIADDTFLFDYSLFFVDVLYNYLQSAEDMATARELWPTARRQVELALTRCDASGVVRDSDDWWVFIDWQASLNKQAAAQGVLIYCLQRAIWLAERFEPELAVSYRQRLQQLKSAALDALWDPQQGFYVSGARRQVSWASQIWLVLAEVGTPQQRREIMRNLEKNPPAVAMNTPYLRHHYIAALLQCGLRDEAIAQIKAYWGAMVDYGADTFWEIFDPAHPDFSPYGSKLINSYCHAWSCTPAWFIRQYGL"}, "B4": {"name": "1000 (protein, listed as Aspergillus terreus)", "chain": "MALSISQVAFEHHRTALGIGETQPRVSWRFDGNVSDWEQRAYEIEVKRAGHDADVFRSESSDSVLVPWPSSPLQSGEEATVRVRSFGSDGQHDTPWSDAVTVEPGLLTPDDWHDAVVIASDRPTEVDATHRPIQFRKEFSVDDSYVSARLYITALGLYEARINDQRVGDHVMAPGWQSYQYRHEYNTYDVTDLLKQGPNAIGVTVGEGWYSGRIGYDGGKRNIYGDTLGLLSLLVVTKSDGSKLYIPSDSSWKSSTGPIISSEIYDGEEYDSRLEQKGWSQVGFNSTGWLGTHELSFPKERLASPDGPPVRRVAEHKLANVFSSASGKTVLDFGQNLVGWLRIRVKGPKGQTIRFVHTEVMENGEVATRPLRQAKATDHFTLSGEGVQEWEPSFTYHGFRYVQVDGWPADTPLDENSVTAIVVHSDMERTGYFECSNPLISKLHENILWSMRGNFFSIPTDCPQRDERLGWTGDIHAFSRTANFIYDTAGFLRAWLKDARSEQLNHSYSLPYVIPNIHGNGETPTSIWGDAIVGVPWQLYESFGDKVMLEEQYGGAKDWVDKGIVRNDVGLWDRSTFQWADWLDPKAPADDPGDATTNKYLVSDAYLLHSTDMLANISTSLSKGEEASNYTEWHAKLTKEFQKAWITSNGTMANETQTGLALPLYFDLFPSAEQAQSAAKRLVNIIKQNDYKVGTGFAGTHLLGHTLSKYGESDAFYSMLRQTEVPSWLYQVVMNGTTTWERWDSMLPNGSINPGQMTSFNHYAVGSVGSWLHEVIGGLSPAEPGWRRINIEVVPGGDLQQASTKFLTPYGMASTKWWLDGQDQSCGGFDFHLVAEVPPNTRATVVLPGKGGEKVDVGSGVHEYHVRCVKL"}, "B5": {"name": "1065 (protein, listed as Chitinophaga pinensis)", "chain": "MRIILTAAFLLITSIVSAQYNAWKGSWITNTEDTTATKAPYLRKTFTLDKKVVSATAYVAGVGYHIVFVNGKPVTDAVLEQAYTRYDKRLLYKVYDVTALLSRKGTQSIAAELGNGWYNIQSHAVWGFQNAPWRKTPRLLLDLVIRYDDGTTETIATDNSWKCATGPSQFNCLYSGEIYDARQEVAGWNQTAFNDAGWKQVLLTSSPGGALHEQIMPSIKVIRRIKPVSMKNLGNGKYLFDMGQNFAGVATLNVKGQAGTKVTMYYGEVLKNGELDMVHNTEHMRSMPGELRFQTDVYFLKGGAREVFTPRFVYHGFQYVQIETDQPLELNVHSLEGLFYSTAFEEAGHFTSSDPMINKLYEAARQSYRSNFLSIPTDCPQREKNGWTADAHISTEIGLWNYQTTEGYRKWLHDVRDAQLPSGAMPGIAPSNGWGYDRPGNEEFTFGPAWGSALGFVTWYMYLYHNDTALVREHYDAFKKYTDAVAKGAEGYLFKHGLDDWMSLVKTPMPLTSTAYFYTDAELVAKMARVLGNKADEQTYSRLADSIRAAFNRTYFDANTGVYKDSTMTALSAAVFHGLASPEAAAKTAAQLSSKVQRSNYHADFGVMGTKYVLPTLSDYGYADVAFRMLTDTGYAGWAHWIANGATTLFEDWPGELSHNHIFFGDYCAWYYKTLAGIRPDEAAPGFQHFYIQPAFVKALNFVKADYASSAGMIKVEWKRKGNSIKLSVEIPSRATVRLPAGMTDDKNATRITLNGQQFDQVVLTPGKYTFNLK"}, "B6": {"name": "1020 (protein, listed as Rhodonellum psychrophilum)", "chain": "MKSLSKILTTVTLLLAVFACEKKPAEIVLFSMMDGVEGLSGKTEYLASPYVTAGDRVYMVGHQDGSFPDLGWHVEGEMGGIWNHPIKLMDGFTNAIEIEGNRFCLDNASAFINYPFANKHEFKNSVPGLEVERFQFVPDGKQGLVIEYLFKNVDKSKKSFVFEFDGHTDLMPVWLGDRAGMIDHVDNLVFDDQRQAWRGKDEGNEWYVLFGANQTASHSQGDSSLCNYFPQGKGKSAKLSYEMELSANGEGSLKFFIAGSYSGLDDVQKTFDLIKTHPETFLKDKRTNYDRIASLSKITIPDKELEKTFEWVKYNTEWLVRDIPEVGRGLGAGMPDYPWWFGVDNEYTLKGAIATGRKDLVYATVDLIHKLSVQENDNGKIVHEVSTNGVVFNPGNINETPQFASLIWYVYQWTGDKAFLEKYYPTIKKGLVWLMEENDKDGNLFPDGYGMMEIHGLESEMIDVAVYTQKAFADAAQMALLMAEPEVARSYQQTADLMKAKINTDFWVESANSYADFIGTAAETFPLVDAAIIRADTLGKPWAVEELKLLRKKLSTYPRNKKQGFVLFHNWVVNTPMEMGIADPEKAIKALDKGSKFVNPFGVFVTGIDRDEASQSEDGSFTGSKVFSYTGAVMTLPTGVQAISENNYGRPDQALAYLQMMVKSFGFALPGSIYEVSPDYGMMAQAWNLYSFGVPIVTQFFGIQPDAGNKVIHISTQMPSDWDSAKIEKVLIGDNVLTLSFLRVEGEIQLQINQTKGDWQIDFVFPTGKYNVWKVGGKEVEKTRVGNQEVFRTSGTSISASFK"}},
  "format_in_all_cases": "biochemical, Quillaja saponaria",
  "key": {"[1]": {"experiment": "Experiment 6-1: specificity of rhamnosidases towards other rhamnose residues (C3 saccharide rhamnose, C28 saccharide rhamnose)", "conditions": "TBE 2%, pH 7.5, 30 degC, 18 h; LCMS/MS; negative controls 0.18, 0.17"}, "[2]": {"experiment": "Experiment 6-1: screening of rhamnosidases for derhamnosylation of saponins in treated bark extract (2%), QS-17 2296 to QS-18 2150 (PAR %)", "conditions": "TBE 2%, pH 7.5, 30 degC, 18 h; TIC peak area ratio percent of rhamnosylated starting saponin to derhamnosylated product, LCMS/MS; negative controls 4.876, 5.225"}, "[3]": {"experiment": "Experiment 6-1: screening of rhamnosidases for derhamnosylation of saponins in treated bark extract (2%), desglucosyl-QS-17 2134 to QS-21 1988 (PAR %)", "conditions": "TBE 2%, pH 7.5, 30 degC, 18 h; TIC peak area ratio percent, LCMS/MS; negative controls 2.719, 2.158"}, "[4]": {"experiment": "Experiment 6-1: screening of rhamnosidases for derhamnosylation of saponins in treated bark extract (2%), QS-17 2310 to QS-18 2164 (PAR %)", "conditions": "TBE 2%, pH 7.5, 30 degC, 18 h; TIC peak area ratio percent, LCMS/MS; negative controls 3.061, 2.429"}},
  "data": [
    {"molecule": "B1", "values": [
      {"measurement": "ratio PP/QS-21", "setting": "[1]", "result": 0.16},
      {"measurement": "QS-17 (PAR %)", "setting": "[2]", "result": 4.926, "unit": "%"},
      {"measurement": "Peak75 (PAR %)", "setting": "[3]", "result": 2.069, "unit": "%"},
      {"measurement": "Peak57 (PAR %)", "setting": "[4]", "result": 3.334, "unit": "%"}
    ]},
    {"molecule": "B2", "values": [
      {"measurement": "ratio PP/QS-21", "setting": "[1]", "result": 0.17},
      {"measurement": "QS-17 (PAR %)", "setting": "[2]", "result": 4.972, "unit": "%"},
      {"measurement": "Peak75 (PAR %)", "setting": "[3]", "result": 2.424, "unit": "%"},
      {"measurement": "Peak57 (PAR %)", "setting": "[4]", "result": 2.764, "unit": "%"}
    ]},
    {"molecule": "B3", "values": [
      {"measurement": "ratio PP/QS-21", "setting": "[1]", "result": 0.17},
      {"measurement": "QS-17 (PAR %)", "setting": "[2]", "result": 5.007, "unit": "%"},
      {"measurement": "Peak75 (PAR %)", "setting": "[3]", "result": 2.441, "unit": "%"},
      {"measurement": "Peak57 (PAR %)", "setting": "[4]", "result": 2.465, "unit": "%"}
    ]},
    {"molecule": "B4", "values": [
      {"measurement": "ratio PP/QS-21", "setting": "[1]", "result": 0.16},
      {"measurement": "QS-17 (PAR %)", "setting": "[2]", "result": 5.010, "unit": "%"},
      {"measurement": "Peak75 (PAR %)", "setting": "[3]", "result": 2.788, "unit": "%"},
      {"measurement": "Peak57 (PAR %)", "setting": "[4]", "result": 3.119, "unit": "%"}
    ]},
    {"molecule": "B5", "values": [
      {"measurement": "ratio PP/QS-21", "setting": "[1]", "result": 0.17},
      {"measurement": "QS-17 (PAR %)", "setting": "[2]", "result": 5.015, "unit": "%"},
      {"measurement": "Peak75 (PAR %)", "setting": "[3]", "result": 2.458, "unit": "%"},
      {"measurement": "Peak57 (PAR %)", "setting": "[4]", "result": 3.194, "unit": "%"}
    ]},
    {"molecule": "B6", "values": [
      {"measurement": "ratio PP/QS-21", "setting": "[1]", "result": 0.17},
      {"measurement": "QS-17 (PAR %)", "setting": "[2]", "result": 5.058, "unit": "%"},
      {"measurement": "Peak75 (PAR %)", "setting": "[3]", "result": 2.360, "unit": "%"},
      {"measurement": "Peak57 (PAR %)", "setting": "[4]", "result": 3.288, "unit": "%"}
    ]}
  ]
}
